This data set is described as follows: self-splicing fitness, log relative to wild type (ln ratio); higher = more splicing; Tetrahymena group I intron in knt gene, E. coli kanamycin selection, DiMSum; sequences stand for … in CUCUCU…GGAGGGAAAAGUUAUCAGGCAUGCACCUGGUAGCUAGUCUUUAAACCAAUAGAUUGCAUCGGUUUAAAAGGCAAGACCGUCAAAUUGCGGGAAAGGGGUCAACAGCCGUUCAGUACCAAGUCUCAGGGGAAACUUUGAGAUGGCCUUGCAAAGGGUAUGGUAAUAAGCUGACGGACAUGGUCCUAACCACGCAGCCAAGUCCUAAGUCAACAGAUCUUCUGUUGAUAUGGAUGCAGUUCACAGACUAAAUGUCGGUCGGGGAAGAUGUAUUCUUCUCAUAAGAUAUAGUCGGACCUCUCCUUAAUGGGAGCUAGCGGAUGAAGUGAUGCAACACUGGAGCCGCUGGGAACUAAUUUGUAUGCGAAAGUAUAUUGAUUAGUUUUGGAGUACUCGUGGUCG
The method in brief:
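Pooled colonies went to amplicon sequencing on an Illumina HiSeq 2500 after six replicate transformations. The plates were LB agar with 100 μg/mL carbenicillin, 50 μM IPTG and 0.2% rhamnose, with or without 25 μg/mL kanamycin, incubated overnight at 37°C or 30°C. The E. coli BL21(DE3) library had all eight P1ex-region intron nucleotides randomised, the intron placed in the knt kanamycin-resistance gene on pET-22b(+). DiMSum fitness is the error-weighted combination of replicate fold changes, kanamycin against none, normalised to wild type.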

± gives the uncertainty stated by the source.

On to UGAAAGCAAUAUUACGCGAA, for which the “self-splicing fitness (ln)” value (30 °C) is -1.52 ± 0.17 and the “self-splicing fitness (ln)” value (37 °C) is -1.05 ± 0.2.

Turning to CUGAAGCAAUAUUACGCAGC, the “self-splicing fitness (ln)” value by setting is: (30 °C) -3.2 ± 0.4; (37 °C) -1.77 ± 0.45.

For AGCAAGCAAUAUUACGGCCU, the “self-splicing fitness (ln)” value was -0.383 ± 0.094 (30 °C) and 0.167 ± 0.13 (37 °C).

Take UGGCAGCAAUAUUACGGGAA: the “self-splicing fitness (ln)” value by setting is: (30 °C) -2.17 ± 0.13; (37 °C) -0.784 ± 0.1.

Turning to GCUAAGCAAUAUUACGACGC, the “self-splicing fitness (ln)” value (30 °C) is -1.52 ± 0.16 and the “self-splicing fitness (ln)” value (37 °C) was -0.603 ± 0.18.

Consider UUUGAGCAAUAUUACGCUAU, for which the “self-splicing fitness (ln)” value runs as follows: (30 °C) -3.79 ± 0.42; (37 °C) -2.26 ± 0.23.

For the sequence UGUAAGCAAUAUUACGUUCG, the “self-splicing fitness (ln)” value turned out to be 0.188 ± 0.095 (30 °C) and 0.33 ± 0.12 (37 °C).

For the sequence CGGCAGCAAUAUUACGAAAC, the “self-splicing fitness (ln)” value is -3.19 ± 0.33 (30 °C) and -2.93 ± 0.25 (37 °C).

In the case of UUCCAGCAAUAUUACGGGAC, the “self-splicing fitness (ln)” value (37 °C) is -1.29 ± 0.39.

For ACAGAGCAAUAUUACGUCUU, the “self-splicing fitness (ln)” value is -1.48 ± 0.18 (30 °C) and -1.98 ± 0.18 (37 °C).

For UCCCAGCAAUAUUACGUCUC, the “self-splicing fitness (ln)” value by setting is: (30 °C) -3.23 ± 0.22; (37 °C) -2.89 ± 0.25.

Consider CGAAAGCAAUAUUACGUUCU, for which the “self-splicing fitness (ln)” value is -0.581 ± 0.075 (30 °C) and 0.092 ± 0.1 (37 °C).

On to GUUUAGCAAUAUUACGGAAC, for which, under “30 °C”, the “self-splicing fitness (ln)” value is -2.74 ± 0.39.

On to GUUAAGCAAUAUUACGGAAG, for which the “self-splicing fitness (ln)” value by setting is: (30 °C) -3.2 ± 0.19; (37 °C) -1.6 ± 0.2.

UAGUAGCAAUAUUACGUAGU: the “self-splicing fitness (ln)” value (30 °C) is -4.39 ± 0.42 and the “self-splicing fitness (ln)” value (37 °C) is -0.839 ± 0.21.

As for GGUAAGCAAUAUUACGCAGA, the “self-splicing fitness (ln)” value (37 °C) is -1.84 ± 0.47.

Turning to ACGAAGCAAUAUUACGCCCG, the “self-splicing fitness (ln)” value (30 °C) is -0.0902 ± 0.13 and the “self-splicing fitness (ln)” value (37 °C) was -0.0289 ± 0.14.

On to CACCAGCAAUAUUACGGACC, for which the “self-splicing fitness (ln)” value is -2.62 ± 0.21 (30 °C) and -1.72 ± 0.21 (37 °C).

In the case of GUAUAGCAAUAUUACGACCU, the “self-splicing fitness (ln)” value is -1.21 ± 0.18 (30 °C) and -0.345 ± 0.18 (37 °C).

Regarding AGAUAGCAAUAUUACGACAA, the “self-splicing fitness (ln)” value reads like this: (30 °C) -0.741 ± 0.072; (37 °C) -0.217 ± 0.077.

In the case of GUUCAGCAAUAUUACGGAAG, the “self-splicing fitness (ln)” value is -0.667 ± 0.088 (30 °C) and 0.566 ± 0.12 (37 °C).

For AGCGAGCAAUAUUACGUGGC, the “self-splicing fitness (ln)” value was -4.97 ± 0.31 (30 °C) and -2.46 ± 0.2 (37 °C).

For UGACAGCAAUAUUACGGGUC, the “self-splicing fitness (ln)” value by setting is: (30 °C) -3.81 ± 0.24; (37 °C) -2.94 ± 0.2.

On to AACAAGCAAUAUUACGAGUG, for which the “self-splicing fitness (ln)” value is, setting by setting: (30 °C) -0.911 ± 0.049; (37 °C) -0.0361 ± 0.07.

For GUCCAGCAAUAUUACGCCGU, the “self-splicing fitness (ln)” value runs as follows: (30 °C) -1.29 ± 0.13; (37 °C) -0.122 ± 0.13.

Turning to UAGGAGCAAUAUUACGGGCA, the “self-splicing fitness (ln)” value is -2.72 ± 0.26 (30 °C) and -2.63 ± 0.39 (37 °C).

UGGAAGCAAUAUUACGCCAG: the “self-splicing fitness (ln)” value reads like this: (30 °C) -1.55 ± 0.18; (37 °C) 0.0553 ± 0.21.

On to CCAAAGCAAUAUUACGCCGA, for which the “self-splicing fitness (ln)” value is, setting by setting: (30 °C) -2.83 ± 0.18; (37 °C) -3.4 ± 0.23.

CUACAGCAAUAUUACGUCGU: the “self-splicing fitness (ln)” value reads like this: (30 °C) -3.3 ± 0.35; (37 °C) -2.83 ± 0.25.

For the sequence ACUCAGCAAUAUUACGUAAU, the “self-splicing fitness (ln)” value was -0.934 ± 0.057 (30 °C) and -0.31 ± 0.076 (37 °C).

Regarding UCCAAGCAAUAUUACGUAUU, the “self-splicing fitness (ln)” value is -3.44 ± 0.19 (30 °C) and -2.46 ± 0.21 (37 °C).

As to ACGAAGCAAUAUUACGUUUU, the “self-splicing fitness (ln)” value (30 °C) was -4.13 ± 0.16 and the “self-splicing fitness (ln)” value (37 °C) is -1.8 ± 0.11.

In the case of GCCUAGCAAUAUUACGCAAC, the “self-splicing fitness (ln)” value is -1.78 ± 0.14 (30 °C) and -1.21 ± 0.13 (37 °C).

As for UCUGAGCAAUAUUACGGUCA, the “self-splicing fitness (ln)” value is, setting by setting: (30 °C) -2.5 ± 0.29; (37 °C) -1.7 ± 0.29.

Turning to CAUUAGCAAUAUUACGGACG, the “self-splicing fitness (ln)” value is, setting by setting: (30 °C) -0.114 ± 0.086; (37 °C) 0.364 ± 0.11.

In the case of GGCUAGCAAUAUUACGCUAU, the “self-splicing fitness (ln)” value was -1.3 ± 0.11 (30 °C) and 0.0903 ± 0.12 (37 °C).

In the case of GCUUAGCAAUAUUACGAGAG, the “self-splicing fitness (ln)” value (30 °C) was -1.52 ± 0.23 and the “self-splicing fitness (ln)” value (37 °C) was -0.67 ± 0.2.

Turning to CUCCAGCAAUAUUACGAUGA, the “self-splicing fitness (ln)” value (30 °C) was -2.36 ± 0.25 and the “self-splicing fitness (ln)” value (37 °C) was -2.7 ± 0.27.

With AGGCAGCAAUAUUACGUCAC, the “self-splicing fitness (ln)” value by setting is: (30 °C) -1.74 ± 0.13; (37 °C) -1.25 ± 0.28.

For GACCAGCAAUAUUACGACAC, the “self-splicing fitness (ln)” value was -0.384 ± 0.065 (30 °C) and -0.0663 ± 0.085 (37 °C).

With GGUAAGCAAUAUUACGGUCG, the “self-splicing fitness (ln)” value runs as follows: (30 °C) -0.945 ± 0.066; (37 °C) -0.215 ± 0.1.

In the case of ACGAAGCAAUAUUACGAAGA, the “self-splicing fitness (ln)” value (30 °C) is -3.07 ± 0.25 and the “self-splicing fitness (ln)” value (37 °C) was -3.2 ± 0.37.

Turning to AAAAAGCAAUAUUACGUAAC, the “self-splicing fitness (ln)” value is -2.45 ± 0.13 (30 °C) and -1.12 ± 0.13 (37 °C).

For the sequence CGUGAGCAAUAUUACGCAUU, the “self-splicing fitness (ln)” value was -4.1 ± 0.47 (30 °C) and -2.15 ± 0.19 (37 °C).

On to UAUAAGCAAUAUUACGGUUG, for which the “self-splicing fitness (ln)” value is, setting by setting: (30 °C) -1.61 ± 0.11; (37 °C) -0.603 ± 0.13.

Regarding CAUAAGCAAUAUUACGGCAG, the “self-splicing fitness (ln)” value (30 °C) stood at 0.0468 ± 0.075 and the “self-splicing fitness (ln)” value (37 °C) is -0.545 ± 0.089.

GCAUAGCAAUAUUACGUAGU: the “self-splicing fitness (ln)” value reads like this: (30 °C) -2.22 ± 0.15; (37 °C) -1.51 ± 0.16.

For GCCAAGCAAUAUUACGCUGA, the “self-splicing fitness (ln)” value by setting is: (30 °C) -1.4 ± 0.1; (37 °C) -0.943 ± 0.15.

As to CUUUAGCAAUAUUACGGCAA, the “self-splicing fitness (ln)” value reads like this: (30 °C) -2.06 ± 0.24; (37 °C) -1.98 ± 0.28.

Take UCCUAGCAAUAUUACGAUUU: the “self-splicing fitness (ln)” value is, setting by setting: (30 °C) -2.16 ± 0.16; (37 °C) -1.36 ± 0.21.

Consider CUUAAGCAAUAUUACGUUGU, for which the “self-splicing fitness (ln)” value (30 °C) was -3.89 ± 0.2 and the “self-splicing fitness (ln)” value (37 °C) is -1.64 ± 0.15.

As for CGGAAGCAAUAUUACGGCGA, the “self-splicing fitness (ln)” value (30 °C) is -0.522 ± 0.3.

For the sequence UAAUAGCAAUAUUACGCCAC, the “self-splicing fitness (ln)” value is -1.32 ± 0.19 (30 °C) and -1.89 ± 0.44 (37 °C).

Regarding GCCCAGCAAUAUUACGUUAU, the “self-splicing fitness (ln)” value runs as follows: (30 °C) -1.17 ± 0.079; (37 °C) -1.29 ± 0.1.

Turning to CUGAAGCAAUAUUACGAAAG, the “self-splicing fitness (ln)” value is, setting by setting: (30 °C) -0.525 ± 0.12; (37 °C) -0.0848 ± 0.16.

Consider AACGAGCAAUAUUACGGGGG, for which the “self-splicing fitness (ln)” value (30 °C) is -3.29 ± 0.26 and the “self-splicing fitness (ln)” value (37 °C) is -3.01 ± 0.37.

On to CAUUAGCAAUAUUACGCCGG, for which the “self-splicing fitness (ln)” value (30 °C) is -0.963 ± 0.15 and the “self-splicing fitness (ln)” value (37 °C) came to 0.612 ± 0.24.

As for UGUCAGCAAUAUUACGUAGC, the “self-splicing fitness (ln)” value is, setting by setting: (30 °C) -3.11 ± 0.2; (37 °C) -2.17 ± 0.19.

For the sequence GGUAAGCAAUAUUACGUACG, the “self-splicing fitness (ln)” value was -0.395 ± 0.11 (30 °C) and -0.415 ± 0.12 (37 °C).

With GCCCAGCAAUAUUACGAUGG, the “self-splicing fitness (ln)” value is -3.53 ± 0.14 (30 °C) and -2.98 ± 0.18 (37 °C).

Take UACAAGCAAUAUUACGAUGA: the “self-splicing fitness (ln)” value reads like this: (30 °C) -0.422 ± 0.072; (37 °C) -0.314 ± 0.085.

The values above are taken from the supplement of paper PMC7877785.
